Among the data in article PMC4255369 (2014) are Ka values, retold here.

Common to all, as to assay: SPR
Test [1] addresses human tau protein isoform 2N4R (human, UniProt P10636-8 1-441).
The target in test [2] is human tau protein isoform 2N3R (human, UniProt P10636-5 1-410).
Test [3] concerns the target mis-disordered tau 151-391/3R (human, UniProt P10636-5 151-391).
Test [4] concerns the target mis-disordered tau protein 151-391/4R (human, UniProt P10636-8 151-391).

Sequence of mis-disordered tau protein 151-391/4R (P10636 468-708): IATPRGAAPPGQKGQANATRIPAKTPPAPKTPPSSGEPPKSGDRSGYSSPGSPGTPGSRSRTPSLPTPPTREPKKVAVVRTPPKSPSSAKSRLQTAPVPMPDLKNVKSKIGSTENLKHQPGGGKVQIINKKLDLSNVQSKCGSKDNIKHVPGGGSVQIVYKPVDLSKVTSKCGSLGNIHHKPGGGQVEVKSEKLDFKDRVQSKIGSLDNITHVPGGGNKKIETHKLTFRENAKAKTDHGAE
Sequence of mis-disordered tau 151-391/3R (P10636 other isoform, or with tags, fused parts or gaps): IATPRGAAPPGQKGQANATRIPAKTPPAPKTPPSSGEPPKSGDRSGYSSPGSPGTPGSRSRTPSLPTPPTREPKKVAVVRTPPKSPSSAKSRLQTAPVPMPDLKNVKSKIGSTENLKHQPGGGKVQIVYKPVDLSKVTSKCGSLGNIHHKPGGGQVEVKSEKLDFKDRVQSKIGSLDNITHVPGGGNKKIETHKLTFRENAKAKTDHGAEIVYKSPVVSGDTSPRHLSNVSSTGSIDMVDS
Sequence of human tau protein isoform 2N4R (P10636 other isoform, or with tags, fused parts or gaps): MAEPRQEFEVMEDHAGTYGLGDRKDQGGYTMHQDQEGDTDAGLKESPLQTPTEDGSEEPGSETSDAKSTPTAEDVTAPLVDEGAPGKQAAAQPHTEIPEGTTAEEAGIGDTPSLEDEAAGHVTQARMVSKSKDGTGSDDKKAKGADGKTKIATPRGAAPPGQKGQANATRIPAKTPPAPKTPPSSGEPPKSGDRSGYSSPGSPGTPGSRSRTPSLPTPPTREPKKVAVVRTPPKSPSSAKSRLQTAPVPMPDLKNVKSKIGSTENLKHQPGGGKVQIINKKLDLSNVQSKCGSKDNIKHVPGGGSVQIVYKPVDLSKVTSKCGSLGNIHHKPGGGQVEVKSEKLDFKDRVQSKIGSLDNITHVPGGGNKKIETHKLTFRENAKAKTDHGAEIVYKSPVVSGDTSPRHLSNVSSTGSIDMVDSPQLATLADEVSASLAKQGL
Sequence of human tau protein isoform 2N3R (P10636 other isoform, or with tags, fused parts or gaps): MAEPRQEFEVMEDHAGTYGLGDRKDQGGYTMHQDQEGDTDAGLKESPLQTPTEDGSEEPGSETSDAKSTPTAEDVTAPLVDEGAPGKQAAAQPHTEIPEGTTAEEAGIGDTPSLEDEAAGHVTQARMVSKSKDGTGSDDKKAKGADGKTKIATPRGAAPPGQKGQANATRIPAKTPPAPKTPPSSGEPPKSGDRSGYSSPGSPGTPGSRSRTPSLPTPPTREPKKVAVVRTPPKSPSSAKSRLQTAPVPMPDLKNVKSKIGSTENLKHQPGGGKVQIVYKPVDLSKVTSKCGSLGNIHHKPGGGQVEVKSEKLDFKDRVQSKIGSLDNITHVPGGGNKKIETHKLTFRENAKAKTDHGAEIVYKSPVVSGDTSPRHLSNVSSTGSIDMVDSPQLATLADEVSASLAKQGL

B1: monoclonal antibody DC8E8 (antibody, V domains shown)
VH: QVQLQQSGPELVKPGTSVKMPCKASGYIFTDYVISWVKQRTGQGLEWIGEIFPRSGSTYYNEKFKGKATLTADKSSNTAYMQLSSVTSEDSAVYFCARDYYGTSFAMDYWGQGTSVTVSS
VL: DIVMSQSPSSLAVSAGEKVTMSCKSSQSLLNSRTRKNYLAWYQQKPGQSPKLLIYWASTRESGVPDRFTGSGSGTDFTLTISSVQAEDLAVYYCKQSFYLRTFGGGTKLDIK
Regarding B1, the Ka is 1.1e+07 M⁻¹ in test [1], 80000 M⁻¹ in test [2], 1.9e+06 M⁻¹ in test [3] and 7.3e+07 M⁻¹ in test [4].
